Literature values in patent US11937625B2, “Oral administration formulation of blueberry extract as a coadjuvant for preserving the health of human precorneal film” (CENTRO DE RETINA MEDICA Y QUIRURGICA, S.C., priority 2017, dated 2024).

B1: lactoferrin (protein, UniProt P02788 20-710, looked up)
Lactotransferrin: GRRRSVQWCAVSQPEATKCFQWQRNMRKVRGPPVSCIKRDSPIQCIQAIAENRADAVTLDGGFIYEAGLAPYKLRPVAAEVYGTERQPRTHYYAVAVVKKGGSFQLNELQGLKSCHTGLRRTAGWNVPIGTLRPFLNWTGPPEPIEAAVARFFSASCVPGADKGQFPNLCRLCAGTGENKCAFSSQEPYFSYSGAFKCLRDGAGDVAFIRESTVFEDLSDEAERDEYELLCPDNTRKPVDKFKDCHLARVPSHAVVARSVNGKEDAIWNLLRQAQEKFGKDKSPKFQLFGSPSGQKDLLFKDSAIGFSRVPPRIDSGLYLGSGYFTAIQNLRKSEEEVAARRARVVWCAVGEQELRKCNQWSGLSEGSVTCSSASTTEDCIALVLKGEADAMSLDGGYVYTAGKCGLVPVLAENYKSQQSSDPDPNCVDRPVEGYLAVAVVRRSDTSLTWNSVKGKKSCHTAVDRTAGWNIPMGLLFNQTGSCKFDEYFSQSCAPGSDPRSNLCALCIGDEQGENKCVPNSNERYYGYTGAFRCLAENAGDVAFVKDVTVLQNTDGNNNEAWAKDLKLADFALLCLDGKRKPVTEARSCHLAMAPNHAVVSRMDKVERLKQVLLHQQAKFGRNGSDCPDKFCLFQSETKNLLFNDNTECLARLHGKTTYEKYLGPQYVAGITNLKKCSTSPLLEACEFLRK
B2: mono-PEGylated lactoferrin: lactoferrin with covalent attachment of polyethylene glycol (PEG), synthesized by Nojima et al (2008) (conjugate, UniProt P02788 20-710, looked up)
Lactotransferrin: GRRRSVQWCAVSQPEATKCFQWQRNMRKVRGPPVSCIKRDSPIQCIQAIAENRADAVTLDGGFIYEAGLAPYKLRPVAAEVYGTERQPRTHYYAVAVVKKGGSFQLNELQGLKSCHTGLRRTAGWNVPIGTLRPFLNWTGPPEPIEAAVARFFSASCVPGADKGQFPNLCRLCAGTGENKCAFSSQEPYFSYSGAFKCLRDGAGDVAFIRESTVFEDLSDEAERDEYELLCPDNTRKPVDKFKDCHLARVPSHAVVARSVNGKEDAIWNLLRQAQEKFGKDKSPKFQLFGSPSGQKDLLFKDSAIGFSRVPPRIDSGLYLGSGYFTAIQNLRKSEEEVAARRARVVWCAVGEQELRKCNQWSGLSEGSVTCSSASTTEDCIALVLKGEADAMSLDGGYVYTAGKCGLVPVLAENYKSQQSSDPDPNCVDRPVEGYLAVAVVRRSDTSLTWNSVKGKKSCHTAVDRTAGWNIPMGLLFNQTGSCKFDEYFSQSCAPGSDPRSNLCALCIGDEQGENKCVPNSNERYYGYTGAFRCLAENAGDVAFVKDVTVLQNTDGNNNEAWAKDLKLADFALLCLDGKRKPVTEARSCHLAMAPNHAVVSRMDKVERLKQVLLHQQAKFGRNGSDCPDKFCLFQSETKNLLFNDNTECLARLHGKTTYEKYLGPQYVAGITNLKKCSTSPLLEACEFLRK
modifications: mono-PEGylated

Columns and labels:
[1] = day 60; oral supplement; post-cataract surgery patients; control group 7.86 (±0.86) seconds
[2] = test system: pepsin; details: in mice; Nojima et al (2008)

Row | Molecule | fluorescein break-up time [1] | resistance to pepsin proteolysis [2]
1 | B1 | 13.9 (±0.99) seconds | 
2 | B2 |  | greater resistance
